Common to all, as to conditions: protein: recombinant; tags: N-terminal 6xHis-TEV site; tRNA fold, annealed
In one data set the target is T1, Min Elp3 M156W (Methanocaldococcus infernus, UniProt D5VRB9 1-534, M156W).
T1 sequence: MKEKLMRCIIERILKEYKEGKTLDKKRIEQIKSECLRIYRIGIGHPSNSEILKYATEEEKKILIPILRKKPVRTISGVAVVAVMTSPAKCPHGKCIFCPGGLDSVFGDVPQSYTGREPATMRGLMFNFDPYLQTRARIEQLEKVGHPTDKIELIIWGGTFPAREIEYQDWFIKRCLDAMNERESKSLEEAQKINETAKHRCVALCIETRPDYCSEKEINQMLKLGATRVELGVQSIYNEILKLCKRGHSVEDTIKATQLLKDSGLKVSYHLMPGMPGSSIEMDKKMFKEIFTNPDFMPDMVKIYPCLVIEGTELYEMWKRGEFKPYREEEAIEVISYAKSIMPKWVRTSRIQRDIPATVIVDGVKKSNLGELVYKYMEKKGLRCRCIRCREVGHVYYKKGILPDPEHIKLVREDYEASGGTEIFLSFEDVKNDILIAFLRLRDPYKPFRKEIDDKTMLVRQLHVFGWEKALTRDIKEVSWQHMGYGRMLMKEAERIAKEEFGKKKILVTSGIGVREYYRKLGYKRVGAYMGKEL
The experiment in a line: EMSA; comparable affinity to WT; EMSA: 250 nM tRNA, 0-20 uM Elp3, 100 mM HEPES pH 7.5, 750 mM NaCl, 25 mM DTT, 20 °C 30 min; 5% TBE gel at 4 °C. In general terms: A gel shift assay detects complexes by their altered migration in electrophoresis.

The next data set deals with T2, Min Elp3 I154W (Methanocaldococcus infernus, UniProt D5VRB9 1-534, I154W).
T2 sequence: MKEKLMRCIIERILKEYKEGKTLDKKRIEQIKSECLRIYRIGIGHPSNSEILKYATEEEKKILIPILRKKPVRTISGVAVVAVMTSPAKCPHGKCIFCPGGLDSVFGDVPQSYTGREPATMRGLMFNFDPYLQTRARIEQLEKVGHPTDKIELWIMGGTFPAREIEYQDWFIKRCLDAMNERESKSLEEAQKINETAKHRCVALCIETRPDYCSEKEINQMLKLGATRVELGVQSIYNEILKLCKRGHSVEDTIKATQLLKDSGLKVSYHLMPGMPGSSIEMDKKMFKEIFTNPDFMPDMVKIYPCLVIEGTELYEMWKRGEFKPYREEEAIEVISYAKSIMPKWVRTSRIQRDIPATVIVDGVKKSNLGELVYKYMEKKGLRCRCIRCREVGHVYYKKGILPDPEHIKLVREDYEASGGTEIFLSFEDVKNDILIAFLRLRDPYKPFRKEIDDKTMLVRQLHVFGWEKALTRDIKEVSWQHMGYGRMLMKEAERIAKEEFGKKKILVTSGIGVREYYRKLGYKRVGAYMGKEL
Described as above.

The target in the next data set is T3, Min Elp3 E207A (Methanocaldococcus infernus, UniProt D5VRB9 1-534, E207A).
T3 sequence: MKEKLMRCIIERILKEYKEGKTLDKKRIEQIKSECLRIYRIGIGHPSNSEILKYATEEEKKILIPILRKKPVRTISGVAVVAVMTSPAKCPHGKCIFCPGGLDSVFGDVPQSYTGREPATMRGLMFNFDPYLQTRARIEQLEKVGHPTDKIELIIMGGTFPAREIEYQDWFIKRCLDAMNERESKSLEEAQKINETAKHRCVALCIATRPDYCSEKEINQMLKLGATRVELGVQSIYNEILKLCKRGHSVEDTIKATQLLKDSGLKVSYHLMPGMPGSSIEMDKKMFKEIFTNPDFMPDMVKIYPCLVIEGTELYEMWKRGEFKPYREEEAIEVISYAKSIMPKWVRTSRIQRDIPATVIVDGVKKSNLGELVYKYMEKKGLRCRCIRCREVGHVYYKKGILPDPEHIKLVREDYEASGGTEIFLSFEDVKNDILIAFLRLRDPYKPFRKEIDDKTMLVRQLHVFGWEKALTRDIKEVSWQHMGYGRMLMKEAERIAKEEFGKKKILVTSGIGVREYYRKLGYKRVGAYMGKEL
Kind of data set: EMSA; similar affinity to WT; EMSA: 250 nM tRNA, 0-20 uM Elp3, 100 mM HEPES pH 7.5, 750 mM NaCl, 25 mM DTT, 20 °C 30 min; 5% TBE gel at 4 °C.

A further data set concerns the target T4, Min Elp3 K302A (Methanocaldococcus infernus, UniProt D5VRB9 1-534, K302A).
T4 sequence: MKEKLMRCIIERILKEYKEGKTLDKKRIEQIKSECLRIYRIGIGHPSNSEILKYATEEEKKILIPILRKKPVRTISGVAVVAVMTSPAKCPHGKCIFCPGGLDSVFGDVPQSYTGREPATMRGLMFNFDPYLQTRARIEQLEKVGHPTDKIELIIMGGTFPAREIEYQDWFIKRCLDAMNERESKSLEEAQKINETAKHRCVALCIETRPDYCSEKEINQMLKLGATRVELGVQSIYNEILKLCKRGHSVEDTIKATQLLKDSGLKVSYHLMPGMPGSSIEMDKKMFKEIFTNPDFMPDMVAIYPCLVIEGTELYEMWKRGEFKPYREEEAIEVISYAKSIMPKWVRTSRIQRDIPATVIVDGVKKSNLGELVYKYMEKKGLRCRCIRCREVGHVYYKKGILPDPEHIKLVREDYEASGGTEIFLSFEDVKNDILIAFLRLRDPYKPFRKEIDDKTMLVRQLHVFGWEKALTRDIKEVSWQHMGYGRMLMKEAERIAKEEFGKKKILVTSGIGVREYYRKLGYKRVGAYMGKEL
The description is as above.

For the next data set, the target named is T5, Min Elp3 Y304A (Methanocaldococcus infernus, UniProt D5VRB9 1-534, Y304A).
T5 sequence: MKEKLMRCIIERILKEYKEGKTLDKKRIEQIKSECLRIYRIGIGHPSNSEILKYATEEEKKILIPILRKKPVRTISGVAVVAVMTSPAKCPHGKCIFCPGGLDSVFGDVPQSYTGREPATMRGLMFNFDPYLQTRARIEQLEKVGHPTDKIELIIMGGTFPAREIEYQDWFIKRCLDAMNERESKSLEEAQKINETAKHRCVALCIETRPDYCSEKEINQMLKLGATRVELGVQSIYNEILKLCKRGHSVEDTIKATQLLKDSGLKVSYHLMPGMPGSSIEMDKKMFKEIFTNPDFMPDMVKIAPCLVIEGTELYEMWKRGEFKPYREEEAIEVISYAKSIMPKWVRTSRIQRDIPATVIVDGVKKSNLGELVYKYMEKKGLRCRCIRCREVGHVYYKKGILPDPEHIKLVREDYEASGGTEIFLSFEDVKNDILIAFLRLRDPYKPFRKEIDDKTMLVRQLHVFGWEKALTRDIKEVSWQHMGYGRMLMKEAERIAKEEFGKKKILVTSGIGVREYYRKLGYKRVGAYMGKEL
The experiment in a line: EMSA; EMSA: 250 nM tRNA, 0-20 uM Elp3, 100 mM HEPES pH 7.5, 750 mM NaCl, 25 mM DTT, 20 °C 30 min; 5% TBE gel at 4 °C.

B1: tRNA ArgUCU (structured_RNA)
RNA: GGACCCGUAGCCUAGCCUGGAUAGGGCACCGGCCUUCUAAGCCGGGGGUCGGGGGUUCAAAUCCCCCCGGGUCCGCCA
B1: the binding result with Min Elp3 M156W, with Min Elp3 I154W, with Min Elp3 E207A and with Min Elp3 K302A was “binds” each time. In the data set with Min Elp3 Y304A, the binding signal was approximately 1.5 fold KD increase vs WT.

Values taken from article PMC13315578.
